The target of one assay is Human P-cadherin (human, UniProt P22223 108-829). The experiment in a line: cell-based or functional assay.
For assay [1], the target named is T1, Cynomolgus Monkey P-cadherin var. 1 (CDH3) D1-5 (cynomolgus monkey).
T1 construct: Cynomolgus CDH3 variant 1 residues 108-654 with a C-terminal 6xHis tag; The printed entry starts with a leader and vector residues; also called Cyno_1 P-cad; cyno1 pCAD-6xHis
As to the kind of experiment: SPR Biacore, ADC captured via Protein A, ECD-6xHis analyte, 25C, 1:1 fit. From the text:
(§1) Briefly, HBS-P⁺ (0.01 M HEPES, pH 7.4, 0.15 M NaCl, 0.05% Surfactant P20) supplemented with 2% Odyssey® blocking buffer (Li-Cor Biosciences, Lincoln, Nebr.) was used as the running buffer for all the experiments on the Biacore® T100 instrument. HBS-P (0.01 M HEPES, pH 7.4, 0.15 M NaCl, 0.005% Surfactant P20) supplemented with 2% Odyssey® blocking buffer was used as the running buffer for all the experiments on the Biacore® 2000 instrument. The immobilization level and analyte interactions were measured by response unit (RU).
(§2) For kinetic measurements, experiments were performed in which the antibodies were captured to the sensor chip surface via the immobilized Protein A and the ability of the P-cadherin proteins to bind in free solution was determined. Briefly, 28 μg/ml of Protein A at pH 4.5 was immobilized on a CM5 sensor chip through amine coupling at flow rate of 10 μl/minute on two flow cells to reach 2300-3300 RUs. 0.01-0.25 μg/ml of test antibodies was then injected at 5 μl/min for 3 minute. […] Subsequently, 6.25-100 nM of P-cadherin ECD was diluted in a 2-fold series and injected at a flow rate of 40 μl/min for 2-4 min over both reference and test flow cells. Table 11 of tested ECDs is listed below. Dissociation of the binding was followed for 5 min. After each injection cycle, the chip surface was regenerated with PBS/6 M Guanidine HCl, pH 7.4 at 100 μl/min for 45 seconds.
Background: Surface plasmon resonance follows binding to a sensor surface in real time, without labels.

Assay [2] deals with T2, Human P-cadherin (CDH3) D1-5 (human, UniProt P22223 108-652).
T2 construct: Human CDH3 residues 108-652 with a C-terminal 6xHis tag, made in Tn5 insect cells with baculovirus (NM_001793.4, NP_001784); It may include a secretion signal and vector residues, as the printed cyno constructs do; no cleavage site is stated; also called human pCAD-6xHis; human P-cadherin ECD
Described as above.
From the text: as §1, §2

Assay [3] deals with T3, Cynomolgus Monkey P-cadherin var. 2 (CDH3) D1-5 (cynomolgus monkey).
T3 construct: Cynomolgus CDH3 variant 2 residues 108-654 with a C-terminal 6xHis tag; The printed entry starts with a leader and vector residues; also called Cyno_2 P-cad; cyno2 pCAD-6xHis
The description is as above.
From the text: as §1, §2

Assay [4] concerns the target T4, Rat P-cadherin (CDH3) D1-5 (rat, UniProt P10287 100-647 (mouse entry)).
T4 construct: Rat CDH3 residues 100-647 with a C-terminal 6xHis tag (NM_053938.1, NP_446390); it may include leader and vector residues; also called rat pCAD-6xHis
T4 chain: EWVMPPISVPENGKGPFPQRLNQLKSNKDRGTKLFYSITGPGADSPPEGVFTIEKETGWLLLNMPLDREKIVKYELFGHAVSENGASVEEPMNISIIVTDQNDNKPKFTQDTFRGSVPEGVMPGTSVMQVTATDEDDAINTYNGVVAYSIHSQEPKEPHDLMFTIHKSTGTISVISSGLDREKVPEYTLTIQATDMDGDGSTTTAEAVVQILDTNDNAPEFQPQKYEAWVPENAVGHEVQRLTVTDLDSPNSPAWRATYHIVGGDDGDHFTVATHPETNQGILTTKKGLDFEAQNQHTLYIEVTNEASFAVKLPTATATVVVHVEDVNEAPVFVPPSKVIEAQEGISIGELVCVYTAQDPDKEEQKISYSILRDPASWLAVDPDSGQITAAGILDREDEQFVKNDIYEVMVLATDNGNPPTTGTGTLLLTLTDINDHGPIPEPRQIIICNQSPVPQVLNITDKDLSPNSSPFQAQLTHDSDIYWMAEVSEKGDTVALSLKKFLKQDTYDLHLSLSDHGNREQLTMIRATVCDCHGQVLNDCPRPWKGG
The experiment in a line: SPR Biacore, Ab captured via Protein A, ECD-6xHis analyte.

The target of assay [5] is T2, Human P-cadherin (CDH3) D1-5. As to the kind of experiment: SPR Biacore, Ab captured via Protein A, ECD-6xHis analyte, 25C, 1:1 fit.
From the text: as §1, §2

The target in assay [6] is T4, Rat P-cadherin (CDH3) D1-5. Described as above.
From the text: as §1, §2

The target in assay [7] is T4, Rat P-cadherin (CDH3) D1-5. As to the kind of experiment: SPR Biacore, ADC captured via Protein A, ECD-6xHis analyte, 25C, 1:1 fit.
From the text: as §1, §2

Changes are numbered by the printed parent chain.

Human P-cadherin, sequence (P22223 108-829 limits assumed): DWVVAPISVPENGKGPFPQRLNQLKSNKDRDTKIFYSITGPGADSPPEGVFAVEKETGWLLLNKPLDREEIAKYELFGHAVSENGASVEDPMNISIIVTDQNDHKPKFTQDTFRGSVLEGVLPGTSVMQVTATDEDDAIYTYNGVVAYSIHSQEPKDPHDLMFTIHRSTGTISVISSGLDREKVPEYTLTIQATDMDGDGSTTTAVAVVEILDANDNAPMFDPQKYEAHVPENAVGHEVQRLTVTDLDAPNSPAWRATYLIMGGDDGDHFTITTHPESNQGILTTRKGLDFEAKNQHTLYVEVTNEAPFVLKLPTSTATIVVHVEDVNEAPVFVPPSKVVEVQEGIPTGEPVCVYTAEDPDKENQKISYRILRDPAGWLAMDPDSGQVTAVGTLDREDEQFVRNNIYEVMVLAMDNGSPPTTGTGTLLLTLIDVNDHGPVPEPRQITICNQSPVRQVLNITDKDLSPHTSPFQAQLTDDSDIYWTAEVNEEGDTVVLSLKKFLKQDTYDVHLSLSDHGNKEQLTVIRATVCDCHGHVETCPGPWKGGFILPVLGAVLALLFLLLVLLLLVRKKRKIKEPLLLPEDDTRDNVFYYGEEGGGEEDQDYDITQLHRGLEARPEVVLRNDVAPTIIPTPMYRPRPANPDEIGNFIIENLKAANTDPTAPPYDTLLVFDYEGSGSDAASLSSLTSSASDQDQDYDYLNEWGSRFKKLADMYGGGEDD
T2 sequence (P22223 108-652 limits assumed): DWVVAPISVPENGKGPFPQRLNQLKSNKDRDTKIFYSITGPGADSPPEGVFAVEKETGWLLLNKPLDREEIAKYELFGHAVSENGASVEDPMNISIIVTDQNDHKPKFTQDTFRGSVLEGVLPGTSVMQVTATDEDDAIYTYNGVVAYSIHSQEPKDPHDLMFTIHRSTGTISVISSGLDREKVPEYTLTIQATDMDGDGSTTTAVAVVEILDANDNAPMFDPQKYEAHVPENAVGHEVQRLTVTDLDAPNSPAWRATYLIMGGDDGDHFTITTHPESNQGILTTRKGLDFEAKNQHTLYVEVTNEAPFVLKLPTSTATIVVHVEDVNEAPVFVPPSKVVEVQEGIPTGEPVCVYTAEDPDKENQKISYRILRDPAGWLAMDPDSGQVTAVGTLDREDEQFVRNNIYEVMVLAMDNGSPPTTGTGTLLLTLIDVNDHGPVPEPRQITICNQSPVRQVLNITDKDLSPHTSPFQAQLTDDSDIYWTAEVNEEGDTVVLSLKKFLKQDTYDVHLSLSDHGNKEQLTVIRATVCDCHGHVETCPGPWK
T1 sequence (chain, as listed by the source limits assumed): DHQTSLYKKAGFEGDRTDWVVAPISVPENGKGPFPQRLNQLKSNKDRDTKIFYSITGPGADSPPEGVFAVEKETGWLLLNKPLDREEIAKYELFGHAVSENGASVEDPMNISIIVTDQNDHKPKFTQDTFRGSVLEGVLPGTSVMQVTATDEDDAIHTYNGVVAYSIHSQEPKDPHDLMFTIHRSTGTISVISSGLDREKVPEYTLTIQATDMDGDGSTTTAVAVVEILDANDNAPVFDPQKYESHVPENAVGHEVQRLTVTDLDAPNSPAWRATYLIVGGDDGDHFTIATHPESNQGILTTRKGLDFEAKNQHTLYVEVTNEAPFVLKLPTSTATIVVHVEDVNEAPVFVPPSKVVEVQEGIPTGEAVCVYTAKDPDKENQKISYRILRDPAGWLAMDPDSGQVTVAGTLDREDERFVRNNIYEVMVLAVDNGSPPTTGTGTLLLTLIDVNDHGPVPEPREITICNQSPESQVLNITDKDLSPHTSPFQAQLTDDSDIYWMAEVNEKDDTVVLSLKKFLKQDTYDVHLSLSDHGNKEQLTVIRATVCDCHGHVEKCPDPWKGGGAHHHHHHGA
T3 sequence (chain, as listed by the source limits assumed): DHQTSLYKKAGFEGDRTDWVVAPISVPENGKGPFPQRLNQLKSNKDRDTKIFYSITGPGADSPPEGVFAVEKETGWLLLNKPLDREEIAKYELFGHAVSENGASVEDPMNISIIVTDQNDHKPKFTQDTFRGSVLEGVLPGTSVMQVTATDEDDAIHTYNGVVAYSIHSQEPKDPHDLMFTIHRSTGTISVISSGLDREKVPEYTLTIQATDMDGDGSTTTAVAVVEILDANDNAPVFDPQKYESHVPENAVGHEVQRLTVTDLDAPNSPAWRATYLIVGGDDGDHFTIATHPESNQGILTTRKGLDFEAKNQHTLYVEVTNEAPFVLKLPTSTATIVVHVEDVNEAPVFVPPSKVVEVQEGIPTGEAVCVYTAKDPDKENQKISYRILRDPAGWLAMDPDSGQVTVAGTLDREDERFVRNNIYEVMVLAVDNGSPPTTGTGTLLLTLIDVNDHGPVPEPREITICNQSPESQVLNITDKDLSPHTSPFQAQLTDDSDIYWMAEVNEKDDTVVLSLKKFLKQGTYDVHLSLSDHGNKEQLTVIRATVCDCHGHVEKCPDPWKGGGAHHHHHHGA

B1: NOV169N31Q-MCC-DM1 (antibody, human IgG1, kappa, V domains shown)
VH: QVQLQQSGPGLVKPSQTLSLTCAISGDSVSSQSAAWNWIRQSPSRGLEWLGRIYYRSKWYNDYALSVKSRITINPDTSKNQFSLQLNSVTPEDTAVYYCARGEGYGREGFAIWGQGTLVTVSS
VL: DIQMTQSPSSLSASVGDRVTITCRASQTISNTLAWYQQKPGKAPKLLIYAASNLQSGVPSRFSGSGSGTDFTLTISSLQPEDFATYYCQQYLSWFTFGQGTKVEIKR
modifications: DM1 (maytansinoid) attached through the MCC linker to primary amines of the antibody; sites not given
notes: MAR 3.7 (one-step process), 3.15 (in situ process), target DAR 3.8; also called NOV169N31Q ADC
For the molecule B1, in the assay with Human P-cadherin, the “IC50 (nM), CellTiter-Glo proliferation/survival, 5 days, A431 cells” value was found to be 21.8 nM; the “IC50 (nM), CellTiter-Glo proliferation/survival, 5 days, BICR6 cells” value is 9.62 nM; the “IC50 (nM), CellTiter-Glo proliferation/survival, 5 days, HCC38 cells” value stood at 5.29 nM; the “IC50 (nM), CellTiter-Glo proliferation/survival, 5 days, HCC70 cells” value is 3.23 nM. Also, in the assay with Human P-cadherin, the “IC50 (nM), CellTiter-Glo proliferation/survival, 5 days, HCC1806 cells” value turned out to be 11.4 nM; the “IC50 (nM), CellTiter-Glo proliferation/survival, 5 days, HCC1954 cells” value was determined as 2.28 nM; the “IC50 (nM), CellTiter-Glo proliferation/survival, 5 days, scaBER cells” value amounted to 4.06 nM. For the same molecule, binding in assay [1] was put at a Kd of 27.5 nM. Moreover, binding in assay [2] was characterised by a dissociation constant (Kd) of 27 nM. Also, in assay [3], the Kd – broadly, the concentration at which binding is half-saturated – was determined as 47.1 nM.

B2: NOV169N31Q (antibody, human IgG1, kappa, V domains shown)
VH: B1 VH
VL: B1 VL
notes: N31Q in HCDR1 removes a deamidation site of parental NOV169; also called anti-P-cadherin antibody NOV169N31Q; NOV169N31Q Naked
Consider B2, for which the binding result in assay [4] is “no binding (tested: 6.25-100 nM P-cadherin ECD injected)”. In assay [5], this molecule showed a Kd of 33.3 nM.

B3: NEG0064 (antibody, human IgG1, kappa, V domains shown)
VH: QIQLVQSGAEVKKPGSSVKVSCKVSGYTFTDHTLHWMRQAPGQGLEWMGYIYPRSGSTKYNENFRGRVTITADTSSSTAYMELSSLRSEDTAVYYCVRRLLFLPLDYWGQGTLVTVSS
VL: EIVMTQSPATLSLSPGERATLSCRSSQSLLSSGNQKSYLTWYQQKPGQAPRLLIYWASTRESGIPARFSGSGSGTDFTLTISSLQPEDFAVYYCQNDYSYPFTFGQGTKLEIKR
notes: Humanized anti-P-cadherin antibody derived from a murine hybridoma; also called NEG0064 Naked
For the molecule B3, the Kd in assay [6] came to 8.99 nM; in assay [5], 3.66 nM.

B4: NEG0064-MCC-DM1 (antibody, human IgG1, kappa, V domains shown)
VH: B3 VH
VL: B3 VL
modifications: DM1 (maytansinoid) attached through the MCC linker to primary amines of the antibody; sites not given
notes: Antibody drug conjugate in Ab-MCC-DM1 format; also called NEG0064 ADC
As for B4, the Kd stood at 13.3 nM in assay [7] and 4.4 nM in assay [2].

B5: NEG0067 (antibody, human IgG1, kappa, V domains shown)
VH: B3 VH with R65K
VL: B3 VL
notes: Humanized anti-P-cadherin antibody derived from a murine hybridoma; also called NEG0067 Naked
Regarding B5, the Kd in assay [6] worked out at 10.3 nM; in assay [5], 3.21 nM.

B6: NEG0016-MCC-DM1 (antibody, human IgG1, kappa, V domains shown)
VH: B3 VH with V97A
VL: B3 VL
modifications: DM1 (maytansinoid) attached through the MCC linker to primary amines of the antibody; sites not given
notes: Antibody drug conjugate in Ab-MCC-DM1 format; also called NEG0016 ADC
Consider B6, for which the affinity in assay [2], expressed as Kd, was 54 nM.

B7: NEG0016 (antibody, human IgG1, kappa, V domains shown)
VH: B3 VH with V97A
VL: B3 VL
notes: Humanized anti-P-cadherin antibody derived from a murine hybridoma; also called NEG0016 Naked
Regarding B7, the Kd in assay [6] stood at 60.1 nM; in assay [5], 60 nM.

B8: NEG0067-MCC-DM1 (antibody, human IgG1, kappa, V domains shown)
VH: B3 VH with R65K
VL: B3 VL
modifications: DM1 (maytansinoid) attached through the MCC linker to primary amines of the antibody; sites not given
notes: Antibody drug conjugate in Ab-MCC-DM1 format; also called NEG0067 ADC
On to B8, for which, in assay [2], the Kd came to 6 nM.

B9: NEG0012-MCC-DM1 (antibody, human IgG1, kappa, V domains shown)
VH: EVQLVQSGAEVKKPGESLKISCKVSGYTFTDHTIHWMRQMPGKGLEWMGYIYPRSGSINYNEKFKGQVTISADKSSSTAYLQWSSLKASDTAMYYCARRNLFLPMEYWGQGTLVTVSS
VL: DIVMTQTPLSLPVTPGEPASISCRSSQSLLSSGDQKNYLTWYLQKPGQSPQLLIYWASTRESGVPDRFSGSGSGTDFTLKISRVEAEDVGVYYCQNDYRYPLTFGQGTKLEIKR
modifications: DM1 (maytansinoid) attached through the MCC linker to primary amines of the antibody; sites not given
notes: Antibody drug conjugate in Ab-MCC-DM1 format; also called NEG0012 ADC
As for B9, the Kd in assay [2] worked out at 31.3 nM.

B10: NEG0012 (antibody, human IgG1, kappa, V domains shown)
VH: B9 VH
VL: B9 VL
notes: Humanized anti-P-cadherin antibody derived from a murine hybridoma; also called NEG0012 Naked
B10: the affinity in assay [5], expressed as Kd, was 44.8 nM.

B11: NEG0013 (antibody, human IgG1, kappa, V domains shown)
VH: B9 VH
VL: B9 VL with D34N, R99S
notes: Humanized anti-P-cadherin antibody derived from a murine hybridoma; also called NEG0013 Naked
With B11, the Kd in assay [6] stood at 37 nM; in assay [5] it was 37.3 nM.

B12: NEG0013-MCC-DM1 (antibody, human IgG1, kappa, V domains shown)
VH: B9 VH
VL: B9 VL with D34N, R99S
modifications: DM1 (maytansinoid) attached through the MCC linker to primary amines of the antibody; sites not given
notes: Antibody drug conjugate in Ab-MCC-DM1 format; also called NEG0013 ADC
In the case of B12, binding in assay [2] was put at a Kd of 36 nM.
